Experimental findings from paper PMC3980048 are described below.

In this assay the target is HIV-1 clade C (CZA97.012) gp140 Env trimer (HIV-1 clade C, strain CZA97.012). Kind of assay: SEC.

Regarding “HIV-1 clade C (CZA97.012) gp140 Env trimer (natural protein)”, the stoichiometry N (in general, the number of molecules, sites or subunits per partner or assembly) turned out to be 3.
